Test results as given in US10941182 (Amgen, dated 2021).
Starred links: 1 amine or outer side, 2 acyl side, 3 side chain; linkers in the order of their positions; H or OH if unused. Non-standard residues stand in square brackets, D forms with d. Primed or numbered codes have the meaning given here. *: point of attachment. AC4Abu = α-carboxy-4-aminobutyric acid, O=C(C(CCN[*:1])C(=O)[*:3])[*:2]; Oic = O=C(O)[C@@H]1C[C@@H]2CCCC[C@@H]2N1; Phe(4-Cl) = N[C@@H](Cc1ccc(Cl)cc1)C(=O)O; γGlu = O=C(O)[C@H](CCC(=O)[*:2])N[*:1]; d(β3hF) = N[C@@H](CC(=O)O)Cc1ccccc1; NMeR = CN[C@@H](CCCNC(=N)N)C(=O)O; Palmitoyl = CCCCCCCCCCCCCCCC(=O)*; Tridecanoyl = CCCCCCCCCCCCC(=O)*; hArg = N=C(N)NCCCC[C@H](N)C(=O)O; Cha = N[C@@H](CC1CCCCC1)C(=O)O; Tle = CC(C)(C)[C@H](N)C(=O)O; αMeP = C[C@@]1(C(=O)O)CCCN1; AC4Abu″ = not defined here; β3hP = O=C(O)C[C@@H]1CCCN1; αMeS = C[C@](N)(CO)C(=O)O; Nle = CCCC[C@H](N)C(=O)O; AMEF = not defined here; AEEA = NCCOCCOCC(=O)O; Aib = CC(C)(N)C(=O)O

T1: human APJ receptor (human, UniProt P35414 1-380)
T1 sequence (looked up): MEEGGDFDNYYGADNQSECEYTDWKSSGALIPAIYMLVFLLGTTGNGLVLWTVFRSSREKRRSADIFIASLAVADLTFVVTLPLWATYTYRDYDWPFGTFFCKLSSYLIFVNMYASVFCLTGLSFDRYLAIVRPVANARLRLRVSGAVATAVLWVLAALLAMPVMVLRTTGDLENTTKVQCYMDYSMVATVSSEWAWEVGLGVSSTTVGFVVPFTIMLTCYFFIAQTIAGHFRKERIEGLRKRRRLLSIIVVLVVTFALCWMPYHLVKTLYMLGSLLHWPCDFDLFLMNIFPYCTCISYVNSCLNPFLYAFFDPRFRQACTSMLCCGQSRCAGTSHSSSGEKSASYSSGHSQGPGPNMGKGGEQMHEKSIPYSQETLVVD

T2: human APJ receptor (human, UniProt P35414 1-380)
T2 sequence (looked up): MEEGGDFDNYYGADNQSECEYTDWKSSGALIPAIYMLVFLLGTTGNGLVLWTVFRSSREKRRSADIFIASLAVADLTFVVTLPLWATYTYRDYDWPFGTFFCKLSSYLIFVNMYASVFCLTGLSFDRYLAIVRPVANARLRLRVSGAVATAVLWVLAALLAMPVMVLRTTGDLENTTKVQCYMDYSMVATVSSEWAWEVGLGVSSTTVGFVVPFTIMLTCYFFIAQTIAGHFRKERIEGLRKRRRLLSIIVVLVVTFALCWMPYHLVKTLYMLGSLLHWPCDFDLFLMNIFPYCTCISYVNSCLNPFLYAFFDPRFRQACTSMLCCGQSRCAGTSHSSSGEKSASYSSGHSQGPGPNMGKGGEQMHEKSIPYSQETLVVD

T3: rat APJ receptor (rat, UniProt Q9JHG3 1-377)
T3 sequence (looked up): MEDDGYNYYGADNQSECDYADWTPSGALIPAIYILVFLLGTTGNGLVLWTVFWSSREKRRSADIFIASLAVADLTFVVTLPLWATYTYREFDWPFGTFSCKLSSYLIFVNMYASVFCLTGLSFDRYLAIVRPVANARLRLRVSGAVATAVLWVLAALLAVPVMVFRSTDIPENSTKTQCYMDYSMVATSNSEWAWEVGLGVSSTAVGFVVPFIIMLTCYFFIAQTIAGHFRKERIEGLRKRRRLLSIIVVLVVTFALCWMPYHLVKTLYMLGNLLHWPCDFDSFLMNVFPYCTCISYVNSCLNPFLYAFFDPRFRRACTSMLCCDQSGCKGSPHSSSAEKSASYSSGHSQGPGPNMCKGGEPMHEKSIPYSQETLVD

T4: rat APJ receptor (rat, UniProt Q9JHG3 1-377)
T4 sequence (looked up): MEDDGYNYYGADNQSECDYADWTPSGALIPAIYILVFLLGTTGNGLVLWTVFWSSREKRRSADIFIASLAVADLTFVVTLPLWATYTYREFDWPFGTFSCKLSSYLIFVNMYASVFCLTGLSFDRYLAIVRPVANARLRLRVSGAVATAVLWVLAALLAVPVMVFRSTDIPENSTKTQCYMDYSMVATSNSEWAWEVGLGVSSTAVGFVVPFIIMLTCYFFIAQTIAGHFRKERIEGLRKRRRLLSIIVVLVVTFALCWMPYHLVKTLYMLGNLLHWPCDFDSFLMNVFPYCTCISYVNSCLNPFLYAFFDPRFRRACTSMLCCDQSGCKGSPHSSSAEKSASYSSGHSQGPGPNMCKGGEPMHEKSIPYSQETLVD


How the values were obtained:
Assay in all cases: cell-based or functional assay
[1] = molecular target: T1, human APJ receptor
[2] = molecular target: T2, human APJ receptor; remark: listed apart in the source
[3] = molecular target: T3, rat APJ receptor
[4] = molecular target: T4, rat APJ receptor; remark: listed apart in the source

| Binder | EC50 Human APJ Receptor [1] [nM] | EC50 Human APJ Receptor (GTPγS assay) [2] [nM] | EC50 Rat APJ Receptor (GTPγS assay) [3] [nM] | EC50 Rat APJ Receptor [4] [nM] |
| --- | --- | --- | --- | --- |
| Tridecanoyl-[AC4Abu][AEEA][AEEA]QRP[NMeR][Cha]SHKG[β3hP][Nle]P[Phe(4-Cl)]-OH (SMILES CCCCCCCCCCCCC(=O)NCCC(C(=O)O)C(=O)NCCOCCOCC(=O)NCCOCCOCC(=O)N[C@@H](CCC(N)=O)C(=O)N[C@@H](CCCNC(=N)N)C(=O)N1CCC[C@H]1C(=O)N(C)[C@@H](CCCNC(=N)N)C(=O)N[C@@H](CC1CCCCC1)C(=O)N[C@@H](CO)C(=O)N[C@@H](Cc1c[nH]cn1)C(=O)N[C@@H](CCCCN)C(=O)NCC(=O)N1CCC[C@H]1CC(=O)N[C@@H](CCCC)C(=O)N1CCC[C@H]1C(=O)N[C@@H](Cc1ccc(Cl)cc1)C(=O)O) [Apelin polypeptide SEQ ID NO: 417] |  | 5.99 | 8.1 |  |
| Tridecanoyl-[γGlu][AEEA][AEEA][dQ]RP[NMeR][Cha]SHK[Tle][Oic][Nle][Aib][Phe(4-Cl)]-OH (SMILES CCCCCCCCCCCCC(=O)N[C@@H](CCC(=O)NCCOCCOCC(=O)NCCOCCOCC(=O)N[C@H](CCC(N)=O)C(=O)N[C@@H](CCCNC(=N)N)C(=O)N1CCC[C@H]1C(=O)N(C)[C@@H](CCCNC(=N)N)C(=O)N[C@@H](CC1CCCCC1)C(=O)N[C@@H](CO)C(=O)N[C@@H](Cc1c[nH]cn1)C(=O)N[C@@H](CCCCN)C(=O)N[C@H](C(=O)N1[C@H](C(=O)N[C@@H](CCCC)C(=O)NC(C)(C)C(=O)N[C@@H](Cc2ccc(Cl)cc2)C(=O)O)C[C@@H]2CCCC[C@@H]21)C(C)(C)C)C(=O)O) [Apelin polypeptide SEQ ID NO: 543] |  | 0.583 | 1.4 |  |
| Tridecanoyl-[γGlu][AEEA][AEEA][dQ]RP[NMeR][Cha]SHKG[Oic][Nle]P[Phe(4-Cl)]-OH (SMILES CCCCCCCCCCCCC(=O)N[C@@H](CCC(=O)NCCOCCOCC(=O)NCCOCCOCC(=O)N[C@H](CCC(N)=O)C(=O)N[C@@H](CCCNC(=N)N)C(=O)N1CCC[C@H]1C(=O)N(C)[C@@H](CCCNC(=N)N)C(=O)N[C@@H](CC1CCCCC1)C(=O)N[C@@H](CO)C(=O)N[C@@H](Cc1c[nH]cn1)C(=O)N[C@@H](CCCCN)C(=O)NCC(=O)N1[C@H](C(=O)N[C@@H](CCCC)C(=O)N2CCC[C@H]2C(=O)N[C@@H](Cc2ccc(Cl)cc2)C(=O)O)C[C@@H]2CCCC[C@@H]21)C(=O)O) [Apelin polypeptide SEQ ID NO: 377] |  | 0.388 | 0.447 |  |
| Tridecanoyl-[γGlu][AEEA][AEEA][dQ]RP[NMeR][Cha]SHKG[αMeP][Nle][Aib][Phe(4-Cl)]-OH (SMILES CCCCCCCCCCCCC(=O)N[C@@H](CCC(=O)NCCOCCOCC(=O)NCCOCCOCC(=O)N[C@H](CCC(N)=O)C(=O)N[C@@H](CCCNC(=N)N)C(=O)N1CCC[C@H]1C(=O)N(C)[C@@H](CCCNC(=N)N)C(=O)N[C@@H](CC1CCCCC1)C(=O)N[C@@H](CO)C(=O)N[C@@H](Cc1c[nH]cn1)C(=O)N[C@@H](CCCCN)C(=O)NCC(=O)N1CCC[C@@]1(C)C(=O)N[C@@H](CCCC)C(=O)NC(C)(C)C(=O)N[C@@H](Cc1ccc(Cl)cc1)C(=O)O)C(=O)O) [Apelin polypeptide SEQ ID NO: 498] |  | 0.0299 | 0.138 |  |

The next lines start with the values.

| EC50 Human APJ Receptor [1] [nM] | EC50 Human APJ Receptor (GTPγS assay) [2] [nM] | EC50 Rat APJ Receptor (GTPγS assay) [3] [nM] | EC50 Rat APJ Receptor [4] [nM] | Binder |
| --- | --- | --- | --- | --- |
| 0.332 |  |  |  | Palmitoyl-[AC4Abu″][AEEA][AEEA][dQ]RP[NMeR][Cha][αMeS]HKG[Oic][Nle][β3hP][d(β3hF)]-OH (reading uncertain) [SEQ ID NO: 642] |
|  | 1.3 | 3.7 |  | Tridecanoyl-[γGlu][AEEA][AEEA][dQ]RP[NMeR][Cha]SHKG[αMeP][Nle][β3hP][Phe(4-Cl)]-OH (SMILES CCCCCCCCCCCCC(=O)N[C@@H](CCC(=O)NCCOCCOCC(=O)NCCOCCOCC(=O)N[C@H](CCC(N)=O)C(=O)N[C@@H](CCCNC(=N)N)C(=O)N1CCC[C@H]1C(=O)N(C)[C@@H](CCCNC(=N)N)C(=O)N[C@@H](CC1CCCCC1)C(=O)N[C@@H](CO)C(=O)N[C@@H](Cc1c[nH]cn1)C(=O)N[C@@H](CCCCN)C(=O)NCC(=O)N1CCC[C@@]1(C)C(=O)N[C@@H](CCCC)C(=O)N1CCC[C@H]1CC(=O)N[C@@H](Cc1ccc(Cl)cc1)C(=O)O)C(=O)O) [Apelin polypeptide SEQ ID NO: 545] |
| 0.307 |  |  |  | Palmitoyl-[AC4Abu″][AEEA][AEEA][dQ]RP[NMeR][Cha]SHKG[Oic][Nle]P[AMEF]-OH (reading uncertain) [SEQ ID NO: 606] |
| 0.224 |  |  | 4.48 | Ac-[hArg]Q[hArg]P[NMeR][Cha]SHKG[Oic][Nle]P[Phe(4-Cl)]-OH [SEQ ID NO: 60] |
